Measured values published in article doi:10.1101/2023.06.06.543969 (2023).
Where two headings read alike, the source gives them in different places.

Experiments:
Experiment in all cases: BLI
[1] = target: T1, influenza hemagglutinin (HA) from H1N1 A/California/07/2009 (influenza A virus H1N1 …)
[2] = target: T2, biotinylated SARS-CoV-2 fusion peptide (SARS-CoV-2, biotin on the N-terminus)
T2 peptide: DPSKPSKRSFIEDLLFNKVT

[3] = target: HCV (isolate H77) E2 domain (HCV (isolate H77))
[4] = target: T3, biotinylated αTSR domain of P. falciparum circumsporozoite protein (P. falciparum, biotinylated)
T3 chain: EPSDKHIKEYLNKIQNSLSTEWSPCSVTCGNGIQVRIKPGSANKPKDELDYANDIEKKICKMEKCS

[5] = target: His-tagged HIV Env MPER peptide (HIV)
[6] = target: T1, influenza hemagglutinin (HA) from H1N1 …; remark: listed apart in the source
[7] = target: His6-tagged SARS-CoV-2 receptor-binding domain (SARS-CoV-2, UniProt P0DTC2)

B1: 3E1 Fab (WT) (Fab, V domains shown)
VH: QVQLQESGPGLVKPSETLSLTCSVSGASISSYYWIWIRQPAGKGLEWIGRFYTSGSPNYNPSLRSRVTMSVDTSKNQFSLKLTSVTAADTAVYYCAREEHITFGGVIVRYWGQGTLVTVSP
VL: DIQMTQSPATLSASVGDRVSITCRASQSISSWLAWYQQKPGKAPKLLIYKASSLESGVPSRFSGSGSGSEFTLTISSLQPDDFAIYYCQQYNSYPWTFGQGTKVEIK
[1]
  Kd: 6.9 nM

B2: COV44–62 Fab (WT) (Fab, V domains shown)
VH: QMQLMQSGAEVKKPGASVTVSCKASGDTFSDYRIHWVRQAPGQGLEWMGRMNPKSGDTNFAQKFQGRVTMTRDMSINTAYMTLSGLTFDDTALYYCASLLIVGGFDPLDDFEVWGQGTMVTISS
VL: QSALTQPPSASGSPGQSVTISCSGTSSDVGGYNFVSWYQHHPGKAPKILIYEVTKRPSGVPDRFSGSKSGNTASLTVSGLQAEDEADYYCSSYGGTNNLLFGGGTKLTVL
[2]
  Kd: 26 nM

B3: HC84.26.5D Fab (WT) (Fab, V domains shown)
VH: VQPVQSGAEVKKPGSSVKVSCEASGGTHSNYVITWVRQAPGQGLEWMGGFIPDFRTAMYAQGFQGRVTITADESTSLAYMELTNLRSEDTAVYYCARGPLSRGYYDYWGPGTLVTVSS
VL: YVLTQPPSVSVAPGQTASITCSGDKLGDKYVSWYQQRPGQSPVLVLYQDSKRPSGIPERFSGSNSGNTATLTISGTQAMDEADYYCQAWDSSALVFGGGTKLTVL
[3]
  Kd: 0.9 nM

B4: Fab234 (WT) (Fab, V domains shown)
VH: EVQLVESGGGLVKPGGSLRLSCAASGFNFSTHIMNWVRQAPGKGLEWVSSISSSGTYIYYADSMKGRFTISRDNPKNSLYLQMNSLRAEDTAVYYCARARGFIQFHYYMDVWGKGTTVAVSS
VL: SYVLTQPPSVSVAPGKTARITCGGNNIGSKSVHWHQQRPGQAPVLVVYDDKIRPSGIPERFSGSNSGNTATLIISRVEAGDEADYYCQVWHSSSDPVVFGGGTKLTVL
[4]
  Kd: 0.2 nM

B5: 4E10 Fab (WT) (Fab, V domains shown)
VH: QVQLVQSGAEVKRPGSSVTVSCKASGGSFSTYALSWVRQAPGRGLEWMGGVIPLLTITNYAPRFQGRITITADRSTSTAYLELNSLRPEDTAVYYCAREGTTGWGWLGKPIGAFAHWGQGTLVTVSS
VL: EIVLTQSPGTQSLSPGERATLSCRASQSVGNNKLAWYQQRPGQAPRLLIYGASSRPSGVADRFSGSGSGTDFTLTISRLEPEDFAVYYCQQYGQSLSTFGQGTKVEVK
[5]
  Kd: 9.1 nM

B6: 5J8 Fab (WT) (Fab, V domains shown)
VH: EVQLVESGPGLVKPSDILSLTCAVSGYSISSNYYWGWIRQPPGKGLEWIGSIYHSGSTYYKPSLESRLGISVDTSKNQFSLKLSFVSAADTAVYYCARHVRSGYPDTAYYFDKWGQGTLVTVSS
VL: SYVLTQPPSVSVAPGETARISCGGNNIGTKVLHWYQQTPGQAPVLVVYDDSDRPSGIPERFSGSNSGNTATLTISRVEVGDEADYYCQVWDISTDQAVFGGGTKLTVL
[6]
  Kd: 4 nM

B7: GAR12 Fab (WT) (Fab, V domains shown)
VH: EVQLVQSGGGLVQPGGSLRLSCAASGFTFSSYAMSWVRQAPGKGLEWVLSISGSGGSTYYADSVKGRFTISIDNSKKTVYLQMNSLRAEDTAVYYCAKSGEQQLVQAEYFHHWGQGTLVTVSS
VL: DIQMTQSPSTLSASVGDRVTITCRASQSIGRWLAWYQQKPGKAPKLLIYDASSLESGVPSRFSGSGFGTEFTLTISSLQPDDFATYYCQQCDSLLTFGGGTKLEIK
[7]
  Kd: 3.5 nM

B8: GAR12 Fab VL D50K (Fab, V domains shown)
VH: EVQLVQSGGGLVQPGGSLRLSCAASGFTFSSYAMSWVRQAPGKGLEWVLSISGSGGSTYYADSVKGRFTISIDNSKKTVYLQMNSLRAEDTAVYYCAKSGEQQLVQAEYFHHWGQGTLVTVSS
VL: DIQMTQSPSTLSASVGDRVTITCRASQSIGRWLAWYQQKPGKAPKLLIYKASSLESGVPSRFSGSGFGTEFTLTISSLQPDDFATYYCQQCDSLLTFGGGTKLEIK
[7]
  Kd: 153 nM
